{
  "source": "patent US20160279247A1",
  "about": "“CYCLIC PEPTIDE” (THE SECRETARY OF STATE FOR BUSINESS, INNOVATION & SKILLS OF …, published 2016)",
  "molecular_target": "T1, D2 peptide (C-terminal amide ('am'))",
  "T1 peptide": "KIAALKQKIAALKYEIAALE",
  "assay": "CD spectroscopy, thermal denaturation of the equimolar mixture (100 uM in each peptide)",
  "procedure": "CD spectra were recorded on an Applied Photosystem Chirascan spectropolarimetre fitted with a Peltier temperature controller. All measurements were taken in ellipticities in mdeg and after baseline correction were converted to mean residue ellipticity (MRE; deg cm² dmol res⁻¹) by normalising for the concentration of peptide bonds and cuvette pathlength. Aqueous peptide solutions (300 μL, 100 μM in each peptide unless stated otherwise) were prepared in filtered (0.22 μm) 10 mM MOPS or phosphate buffer, pH 7.4. To calculate the percent α-helix, the equation, −100([q]₂₂₂+3000)/33 000), was used.\nThermal denaturation curves (solid lines) and their first derivatives (dashed lines) for SaNet (FIG. 8a), D1-D2 (FIGS. 8b) and D1 (FIG. 8c); and CD spectra following the thermal unfolding of D1-D2 (FIGS. 8d) and D1 (FIG. 8e); 10° C. (dotted line) and 90° C. (dashed line) with intervening spectra recorded every 10° C. (solid lines).",
  "note": "Where no end group is shown, it is not given here.",
  "data": [
    {"binder": "EIAALEQEIAALEYKIAALK-NH2", "note": "[D1 peptide]", "values": [
      {"measurement": "transition midpoint of thermal unfolding of the D1+D2 mixture", "value": "~55", "unit": "° C."}
    ]}
  ]
}
